Reference: PMC12830165 (The Journal of Biological Chemistry, 2025)

Legend:
[1] = biological target: T1, human ORC1-5 (HsORC1-5, with ORC1ΔN) (Homo sapiens, UniProt O43929+Q13415, O43929:N78S/Q13415:R720Q); experiment: NADH-coupled steady-state ATPase assay; type: biochemical; details: ATP 0.13 uM to 0.5 mM, 1 uM ORC, 10 mM Mg acetate, 300 mM K glutamate, pH 7.6, 37 C; ORC1-ORC4 ATPase site
T1 construct: ORC1 N-terminally truncated (ORC1ΔN399, probably starts at residue 400), ORC4 with natural variant N78S; 6xHis-TEV (ORC1) and MBP-TEV (ORC4) tags cleaved; baculovirus/High Five cells; ORC6 not included; with Origin recognition complex subunit 2; Origin recognition complex subunit 3; Origin recognition complex subunit 5
T1 sequence (Q13415 400-861 R720Q): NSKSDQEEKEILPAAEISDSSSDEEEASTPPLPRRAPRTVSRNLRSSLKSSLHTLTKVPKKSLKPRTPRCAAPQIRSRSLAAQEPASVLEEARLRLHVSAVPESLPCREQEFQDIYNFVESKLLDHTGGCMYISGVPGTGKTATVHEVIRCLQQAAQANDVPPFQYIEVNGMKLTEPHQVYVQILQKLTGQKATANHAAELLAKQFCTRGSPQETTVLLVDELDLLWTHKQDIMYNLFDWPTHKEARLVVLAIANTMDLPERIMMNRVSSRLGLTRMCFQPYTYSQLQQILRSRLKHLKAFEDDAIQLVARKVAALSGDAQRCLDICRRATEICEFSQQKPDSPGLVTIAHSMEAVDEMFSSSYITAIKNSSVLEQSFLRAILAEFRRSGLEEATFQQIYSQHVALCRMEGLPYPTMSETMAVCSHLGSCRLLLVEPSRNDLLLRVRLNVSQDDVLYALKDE
T1 sequence (O43929 whole entry N78S, the tested form may be a part): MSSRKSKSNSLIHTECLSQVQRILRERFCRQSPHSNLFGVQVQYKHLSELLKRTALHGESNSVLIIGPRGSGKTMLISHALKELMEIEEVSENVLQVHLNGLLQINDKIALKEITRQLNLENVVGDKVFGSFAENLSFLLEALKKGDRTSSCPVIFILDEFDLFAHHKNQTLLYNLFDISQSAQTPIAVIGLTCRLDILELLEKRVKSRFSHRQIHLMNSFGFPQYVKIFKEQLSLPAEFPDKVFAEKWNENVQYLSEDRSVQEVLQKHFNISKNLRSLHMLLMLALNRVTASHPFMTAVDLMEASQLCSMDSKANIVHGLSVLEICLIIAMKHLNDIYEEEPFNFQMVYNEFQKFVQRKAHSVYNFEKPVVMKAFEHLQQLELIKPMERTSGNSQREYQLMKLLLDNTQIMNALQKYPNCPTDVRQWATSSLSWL
T1 sequence (Q13416 whole entry partner, the tested form may be a part): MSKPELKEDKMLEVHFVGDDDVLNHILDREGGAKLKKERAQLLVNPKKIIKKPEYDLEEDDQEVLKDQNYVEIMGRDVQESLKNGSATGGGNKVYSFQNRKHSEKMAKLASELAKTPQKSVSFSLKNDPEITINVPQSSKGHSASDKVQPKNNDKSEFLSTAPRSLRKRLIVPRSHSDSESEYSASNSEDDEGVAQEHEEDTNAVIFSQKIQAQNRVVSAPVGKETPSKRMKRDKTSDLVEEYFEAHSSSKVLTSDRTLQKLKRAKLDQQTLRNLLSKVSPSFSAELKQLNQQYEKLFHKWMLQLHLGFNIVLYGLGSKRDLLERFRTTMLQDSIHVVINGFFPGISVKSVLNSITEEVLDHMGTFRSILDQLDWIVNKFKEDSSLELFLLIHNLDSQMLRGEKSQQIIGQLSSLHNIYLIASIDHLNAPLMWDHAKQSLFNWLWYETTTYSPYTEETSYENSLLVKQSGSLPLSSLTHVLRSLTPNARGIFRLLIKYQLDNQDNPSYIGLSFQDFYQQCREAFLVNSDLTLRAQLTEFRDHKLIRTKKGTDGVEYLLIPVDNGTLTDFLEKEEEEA
T1 sequence (Q9UBD5 whole entry partner, the tested form may be a part): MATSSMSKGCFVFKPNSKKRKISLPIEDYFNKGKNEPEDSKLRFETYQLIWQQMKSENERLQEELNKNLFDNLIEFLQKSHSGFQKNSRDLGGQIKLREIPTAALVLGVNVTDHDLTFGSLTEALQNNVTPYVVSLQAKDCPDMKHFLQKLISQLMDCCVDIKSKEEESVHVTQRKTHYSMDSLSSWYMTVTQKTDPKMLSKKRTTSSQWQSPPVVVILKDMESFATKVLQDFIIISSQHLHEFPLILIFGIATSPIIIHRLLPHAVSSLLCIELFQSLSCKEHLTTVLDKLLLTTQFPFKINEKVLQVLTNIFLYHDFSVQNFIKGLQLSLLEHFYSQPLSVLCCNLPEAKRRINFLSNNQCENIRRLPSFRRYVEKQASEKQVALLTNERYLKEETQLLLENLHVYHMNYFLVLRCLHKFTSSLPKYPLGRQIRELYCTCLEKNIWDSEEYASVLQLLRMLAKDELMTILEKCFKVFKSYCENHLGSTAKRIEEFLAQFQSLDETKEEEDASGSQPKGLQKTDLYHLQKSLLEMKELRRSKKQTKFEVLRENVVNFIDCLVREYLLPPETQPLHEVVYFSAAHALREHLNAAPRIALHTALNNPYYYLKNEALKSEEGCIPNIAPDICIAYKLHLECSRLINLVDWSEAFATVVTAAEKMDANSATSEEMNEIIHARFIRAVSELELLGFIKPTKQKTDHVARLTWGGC
T1 sequence (O43913 whole entry partner, the tested form may be a part): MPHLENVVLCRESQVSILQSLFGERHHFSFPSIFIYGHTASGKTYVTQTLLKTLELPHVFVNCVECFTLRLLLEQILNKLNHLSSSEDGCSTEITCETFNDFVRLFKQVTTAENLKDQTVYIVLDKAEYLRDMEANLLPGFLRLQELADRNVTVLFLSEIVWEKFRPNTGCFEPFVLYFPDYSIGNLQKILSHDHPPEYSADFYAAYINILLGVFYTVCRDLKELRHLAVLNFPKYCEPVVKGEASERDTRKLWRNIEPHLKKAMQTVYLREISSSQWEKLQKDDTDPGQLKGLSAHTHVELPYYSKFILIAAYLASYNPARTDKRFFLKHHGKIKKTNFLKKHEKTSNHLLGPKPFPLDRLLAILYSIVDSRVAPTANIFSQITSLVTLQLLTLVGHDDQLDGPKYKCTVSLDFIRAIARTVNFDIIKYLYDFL

[2] = biological target: ORC1-5 ORC1 R666W (human, UniProt Q13415;Q13416;Q9UBD5;O43929;O43913 400-861;1-577;1-711;1-436;1-435, R666W;N78S); experiment: fluorescence anisotropy; 1 mM ATP, 10 mM Mg acetate; 25 mM HEPES-KOH pH 7.6, 300 mM K glutamate, 10% glycerol, 1 mM DTT, 10 mM Mg acetate, 0.01% NP-40, 0 or 1 mM ATP, 1 nM DNA, 30 min at 22 °C; Hill fit (Kd,app); details: protein: recombinant; tags: 6xHis-TEV (ORC1) and MBP-TEV (ORC4), cleaved by TEV; copies: 1;1;1;1;1; label: 5' fluorescein-T on strand 1; blunt (40 bp; possible 1 nt 5' FluorT overhang)
[3] = biological target: ORC1-5 (WT, ORC1ΔN) (human, UniProt Q13415;Q13416;Q9UBD5;O43929;O43913 400-861;1-577;1-711;1-436;1-435, N78S); experiment: as above; details: protein: recombinant; tags: 6xHis-TEV (ORC1) and MBP-TEV (ORC4), cleaved by TEV; copies: 1;1;1;1;1; label: 5' fluorescein-T on strand 1; blunt (40 bp; possible 1 nt 5' FluorT overhang)
[4] = biological target: ORC1-5 ORC1 R720Q (human, UniProt Q13415;Q13416;Q9UBD5;O43929;O43913 400-861;1-577;1-711;1-436;1-435, R720Q;N78S); experiment: as above; details: protein: recombinant; tags: 6xHis-TEV (ORC1) and MBP-TEV (ORC4), cleaved by TEV; copies: 1;1;1;1;1; label: 5' fluorescein-T on strand 1; blunt (40 bp; possible 1 nt 5' FluorT overhang)
[5] = biological target: ORC1-5 ORC4 Y174C (human, UniProt Q13415;Q13416;Q9UBD5;O43929;O43913 400-861;1-577;1-711;1-436;1-435, Y174C;ORC4:N78S); experiment: as above; details: protein: recombinant; tags: 6xHis-TEV (ORC1) and MBP-TEV (ORC4), cleaved by TEV; copies: 1;1;1;1;1; label: 5' fluorescein-T on strand 1; blunt (40 bp; possible 1 nt 5' FluorT overhang)

Row | Molecule | NADH-coupled steady-state ATPase assay [1] | Kd [2] | Kd [3] | binding result [4] | binding result [5]
1 | Nc1ncnc2c1ncn2[C@@H]1O[C@H](COP(=O)(O)OP(=O)(O)OP(=O)(O)O)[C@@H](O)[C@H]1O [ATP] | with the largest ATP hydrolysis defect observed with ORC1R720Q | – | – | – | –
2 | 40 bp fluorescein dsDNA (dsDNA) DNA 1: TTTTGAAAAGCAAGCATAAAAGATCTAAACATAAAATCTG DNA 2: CAGATTTTATGTTTAGATCTTTTATGCTTGCTTTTCAAAA | – | 49.9 nM | 37.6 nM | no binding | no binding
